Results reported in patent publication US20260146073A1 (published 2026).
Substitutions are numbered along the chain they refer to. Blank lines part the entries; values can stand above or below the binder they belong to.

Key:
[1] = target: T1, WT p16INK4a (CDKN2A) peptide on HLA-A*02:01 (human); test: cytokine release
T1 peptide: RLPVDLAEEL

[2] = target: T2, WT p16INK4a (CDKN2A) peptide on HLA-A*02:01 (human); test: cytokine release
T2 peptide: LPVDLAEEL

[3] = target: T3, mutated CDKN2A, frameshift (p16INK4a -1 or +2 indels between M54 and W100); p14ARF -2 or +1 indels between G69 … (human); test: cytokine release
T3 peptide: AVCPWTWLR

[4] = target: T4, mutated CDKN2A, frameshift (p16INK4a -1 or +2 indels between M54 and W100); p14ARF -2 or +1 indels between G69 … (human); test: multimer staining
T4 peptide: AVCPWTWLR

[5] = target: T3, mutated CDKN2A, frameshift (p16INK4a -1 …); test: multimer staining

B1: 4286 TCR 10-1 (TCR, V domains shown)
Valpha: QKEVEQNSGPLSVPEGAIASLNCTYSDRGSQSFFWYRQYSGKSPELIMFIYSNGDKEDGRFTAQLNKASQYVSLLIRDSQPSDSATYLCAVKSWVIFGKGTRLHILP
Vbeta: GVTQSPTHLIKTRGQQVTLRCSPISGHKSVSWYQQVLGQGPQFIFQYYEKEERGRGNFPDRFSARQFPNYSSELNVNALLLGDSALYLCASSPSAQSSYGYTFGSGTRLTVV
binding result [1]: no recognition | binding result [2]: no recognition

B4: 4286 TCR 10-3 (TCR, V domains shown)
Valpha: QSVSQHNHHVILSEAASLELGCNYSYGGTVNLFWYVQYPGQHLQLLLKYFSGDPLVKGIKGFEAEFIKSKFSFNLRKPSVQWSDTAEYFCAVKDTGFQKLVFGTGTRLLVSP
Vbeta: GAVVSQHPSWVICKSGTSVKIECRSLDFQATTMFWYRQFPKQSLMLMATSNEGSKATYEQGVEKDKFLINHASLTLSTLTVTSAHPEDSSFYICSARGGRNSFEQFFGPGTRLTVL
binding result [1]: no recognition | binding result [2]: no recognition

B5: 4286 TCR 10-4 (TCR, V domains shown)
Valpha: B4 Valpha
Vbeta: B4 Vbeta with R100A, N101R, F103Y, F106Y, L116T
binding result [1]: no recognition | binding result [2]: no recognition

Next, values leading:

binding result [3]: recognises | binding result [4]: recognises
B2: 1913 TCR-41BB (TCR, V domains shown)
Valpha: ELKVEQNPLFLSMQEGKNYTIYCNYSTTSDRLYWYRQDPGKSLESLFVLLSNGAVKQEGRLMASLDTKARLSTLHITAAVHDLSATYFCAVDPTGANSKLTFGKGITLSVRP
Vbeta: GVTQTPKHLITATGQRVTLRCSPRSGDLSVYWYQQSLDQGLQFLIQYYNGEERAKGNILERFSAQQFPDLHSELNLSSLELGDSALYFCASSVAISGEETQYFGPGTRLLVL

binding result [5]: recognises
B3: 3333 TCR-C (TCR, V domains shown)
Valpha: QKEVEQNSGPLSVPEGAIASLNCTYSDRGSQSFFWYRQYSGKSPELIMSIYSNGDKEDGRFTAQLNKASQYVSLLIRDSQPSDSATYLCAVNRAREAAGNKLTFGGGTRVLVKP
Vbeta: DIYQTPRYLVIGTGKKITLECSQTMGHDKMYWYQQDPGMELHLIHYSYGVNSTEKGDLSSESTVSRIRTEHFPLTLESARPSHTSQYLCASSRPGSEKLFFGSGTQLSVL

binding result [1]: no recognition | binding result [2]: no recognition
B6: 4286 TCR 10-2 (TCR, V domains shown)
Valpha: QKEVEQNSGPLSVPEGAIASLNCTYSDRGSQSFFWYRQYSGKSPELIMFIYSNGDKEDGRFTAQLNKASQYVSLLIRDSQPSDSATYLCAVPNSGYSTLTFGKGTMLLVSP
Vbeta: GVTQSPTHLIKTRGQQVTLRCSPISGHKSVSWYQQVLGQGPQFIFQYYEKEERGRGNFPDRFSARQFPNYSSELNVNALLLGDSALYLCASRTGTVTNSYNEQFFGPGTRLTVL

binding result [5]: recognises
B7: 3333 TCR-A (TCR, V domains shown)
Valpha: QKEVEQNSGPLSVPEGAIASLNCTYSDRGSQSFFWYRQYSGKSPELIMSIYSNGDKEDGRFTAQLNKASQYVSLLIRDSQPSDSATYLCAVNTASGTYKYIFGTGTRLKVLA
Vbeta: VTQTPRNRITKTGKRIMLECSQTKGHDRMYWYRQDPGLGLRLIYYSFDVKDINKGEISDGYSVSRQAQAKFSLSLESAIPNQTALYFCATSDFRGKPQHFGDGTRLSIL
